Experimental data from publication PMC12135937, “Members of the DIP and Dpr adhesion protein families use cis inhibition to shape neural development in Drosophila” (PLOS Biology, 2025).
Values belong to the binder of their own block, whether it stands above or below them.

How the values were obtained:
Conditions in all cases: both partners purified
DIP-β isoform C = biological target: T1, DIP-β isoform C (Drosophila melanogaster); assay: SPR; Biacore T100, CM4 chip; DIPs immobilised by amine coupling (700-900 RU), monomeric Dpr analytes in 3-fold dilution series (0.012 to 9, 27 or 81 µM); 25 °C; 10 mM Tris-HCl pH 7.2, 150 mM NaCl, 1 mM EDTA, 1 mg/mL BSA, 0.01% Tween-20; equilibrium responses fit to a 1:1 model
T1 construct: Monomeric protein was used for SPR; also called DIP-β-C
T1 sequence (main, as listed by the source): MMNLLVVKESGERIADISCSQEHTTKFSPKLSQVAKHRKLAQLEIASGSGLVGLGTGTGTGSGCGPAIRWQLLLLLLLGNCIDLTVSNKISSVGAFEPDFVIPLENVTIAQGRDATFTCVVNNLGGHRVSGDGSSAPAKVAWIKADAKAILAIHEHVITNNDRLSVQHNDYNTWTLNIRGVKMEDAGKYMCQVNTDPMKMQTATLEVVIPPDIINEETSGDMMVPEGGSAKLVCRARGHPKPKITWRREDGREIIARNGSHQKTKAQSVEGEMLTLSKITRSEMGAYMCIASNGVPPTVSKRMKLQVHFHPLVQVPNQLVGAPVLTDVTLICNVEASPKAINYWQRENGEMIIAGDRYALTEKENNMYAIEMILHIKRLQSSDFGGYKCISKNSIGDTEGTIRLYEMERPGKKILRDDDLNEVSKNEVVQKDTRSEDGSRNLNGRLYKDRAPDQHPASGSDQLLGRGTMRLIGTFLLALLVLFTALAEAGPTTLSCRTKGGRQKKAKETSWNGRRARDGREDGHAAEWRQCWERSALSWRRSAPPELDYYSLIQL

DIP-β isoform G = biological target: T2, DIP-β isoform G (Drosophila melanogaster); assay: as above
T2 construct: has an 11 amino acid deletion in the first Ig domain relative to DIP-β-C; Monomeric protein was used for SPR; also called DIP-β-G; not shown: His6, C-terminal, kept
T2 chain: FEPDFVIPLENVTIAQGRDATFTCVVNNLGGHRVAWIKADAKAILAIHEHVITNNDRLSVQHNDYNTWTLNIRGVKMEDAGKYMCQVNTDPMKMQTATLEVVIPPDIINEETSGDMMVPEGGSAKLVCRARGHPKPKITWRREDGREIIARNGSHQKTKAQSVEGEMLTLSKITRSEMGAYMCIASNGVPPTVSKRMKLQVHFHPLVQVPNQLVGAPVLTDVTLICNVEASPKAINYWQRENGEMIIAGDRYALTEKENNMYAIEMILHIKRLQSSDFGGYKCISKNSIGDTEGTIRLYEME

[1] = biological target: T3, DIP-β-G recombinant protein for SPR (printed sequence) (Drosophila melanogaster); assay: SPR; Biacore T100, CM4 chip; DIPs immobilised by amine coupling (700-900 RU), monomeric Dpr analytes in 3-fold dilution series; 25 °C; 10 mM Tris-HCl pH 7.2, 150 mM NaCl, 1 mM EDTA, 1 mg/mL BSA, 0.01% Tween-20; equilibrium responses fit to a 1:1 model
T3 construct: DIP-β isoform G, Drosophila melanogaster; Monomeric protein was used for SPR; immobilised by amine coupling; also called Isoform G of DIP-β; not shown: His6, C-terminal, kept
T3 chain: T2 chain

Kd (DIP-β isoform C): 25.3 µM
Kd (DIP-β isoform G): 159 µM
B1: Dpr15 (natural protein)
chain: TLKPPPTIDDYQTIISQAGTHAYLPCNVKQLVKKPISWLRMRDGHILTVDQTTFIADQRFQSVFSPNPERWSLQIKYVQLKDEGTYECQVSTEPKASAIVHLRIVEPKTELIGESTRHVKAGSQVKLRCIISQALEPPLFINWFYNQKQIYLHNRRGWRTEIERIDLPAEVPTTSTTTTTTTTTASTTTTTTSTTPATPSTTATGSTEGATSSETLNGLVTITRSYILDAISQNDVSELGAAAGVAVATETSTAQLLTEVEATSSTSGTSTGAGLLASTSAAYAAGAAAGITTAATGDSAATAATTSAWLTTMDAEAATTAATTTTTMLPSSSFIKQITTASLIIPAVVKLDSGNYTCSPSNSAPRTIVLHVLNGE

Kd (DIP-β isoform C): 22 µM
Kd (DIP-β isoform G): 15.2 µM
B2: Dpr6 (natural protein)
chain: WMEPYFDPSTPRNVTALMGKSAYLSCRVRNLANKTVSWIRHRDIHILTVGSYTYTSDQRFQATHHQDTEDWTLQIKWAQKRDAGMYECQISTQPVRSYFVRLNVVVPTATILGGPDLHVDKGSTINLTCTVKFSPEPPAYIFWYHHEEVINYDSSRGGVSVITEKGDVTTSFLLIQNADLADSGKYSCAPSNADVASVRVHVLNGE

Kd (DIP-β isoform C): 1.55 µM
Kd (DIP-β isoform G): 5.05 µM
B3: Dpr21 (natural protein)
chain: DRGPYFDTSATKNVTSLVGITGHLNCRIKNLGNKTVSWIRHRDLHLLTVSESTYTSDQRFTSIYNKQTGDWSLQIKFPQLRDSGIYECQVSTTPPVGYTMVFSVVEPITSILGGPEIYIDLGSTVNLTCVIKHLPDPPISVQWNHNNQEINYDSPRGGVSVITEKGDITTSYLLIQRASIADSGQYTCLPSNANSKSVNVHILKGD

Kd [1]: 5.76 µM
B4: Dpr10-A recombinant protein for SPR (printed sequence) (domain or fragment, Drosophila melanogaster)
chain: WNEPYFDLTMPRNITSLVGKSAYLGCRVKHLGNKTVAWIRHRDLHILTVGTYTYTTDQRFQTSYHRDIDEWTLQIKWAQQRDAGVYECQISTQPVRSYSVNLNIVDLIDAETSDIMQQYYNDDAFYIAENRVYQSSNDEFAGMFGPIQTVAVPTATILGGPDLYVDKGSTINLTCIIKFSPEPPTHIFWYHQDKVLSEETSGGRLKFKTIKSEETKSILLIYDADLLHSGKYSCYPSNTEIASIRVHVLQGE
notes: Dpr10 isoform A, Drosophila melanogaster; Monomeric protein was used for SPR; analyte; not shown: His6, C-terminal, kept
